# Columns and labels:
# HDAC6 = HDAC6 (UniProt Q9UBN7); test: Strep bait enrichment from lysate, Western blot; conditions: reference: unmodified Strep-NEDD8; sites S65
# Parkin = Parkin (UniProt O60260); test: Strep-Tactin pull-down, anti-Parkin blot; conditions: reference: unmodified Strep-NEDD8; sites S65
substance,measurement,setting,value
NEDD8 1-76 (from UniProt Q15843) Strep-pNEDD8 (pS65),binding against the reference,HDAC6,stronger
same,binding against the reference,Parkin,stronger

# — article PMC9020517
